Laboratory results taken from patent publication US20190169635.

System: alpha-1 antitrypsin (AAT) in the serum of wild-type C57BL/6 mice

Substance: neutrophil elastase
- relative neutrophil elastase activity (colorimetric kinetics of substrate degradation) after incubation with serum: serum from wild-type male and female C57BL/6 mice exhibited a high capacity to inhibit neutrophil elastase, serum from the three founders showed a reduced capacity to do so
